Where “and” joins values, the source holds several entries; their conditions need not be identical. Equal values may be shown once. Read-outs that look alike come from different tables or passages of the source. Starred links: 1 amine or outer side, 2 acyl side, 3 side chain; linkers in the order of their positions; H or OH if unused. Positions of bridges follow the written chain, without caps; N, C: chain ends. Non-standard residues stand in square brackets, D forms with d. No end group written: not given here. *: point of attachment. TATB = O=C(C[*:1])N1CN(C(=O)C[*:2])CN(C(=O)C[*:3])C1; 1Nal = N[C@@H](Cc1cccc2ccccc12)C(=O)O; 2Nal = N[C@@H](Cc1ccc2ccccc2c1)C(=O)O; AzPro = azidopropyl, [N-]=[N+]=NCCC*; Hyp = O=C(O)[C@@H]1C[C@@H](O)CN1; tBuAla = CC(C)(C)C[C@H](N)C(=O)O; 4Pal = N[C@@H](Cc1ccncc1)C(=O)O; Tle = CC(C)(C)[C@H](N)C(=O)O; Aib = CC(C)(N)C(=O)O

The target in test [1] is T1, Human TfR1 protein (R&D Systems, 2474-TR or Acro Biosystems, CD1-H5243) (human, UniProt P02786 89-760). Kind of test: FP competition, competitor BCY15768.
Test [2] concerns the target T1, Human TfR1 protein (R&D Systems, …). Briefly: FP competition, competitor BCY15768. This is another data set of the same source.
For test [3], the target named is T2, Recombinant human TfR1, His6-tagged (a.a. 89-760) (human, UniProt P02786 89-760).
T2 construct: range 89-760; captured and coupled on an NTA chip for SPR; also called transferrin receptor 1; CD71
Briefly: SPR, TfR1 on chip.

The target in test [4] is T3, Recombinant cynomolgus TfR1, His6-tagged (a.a. 89-760) (cynomolgus, UniProt H9EXL1 89-760 (rhesus entry)).
T3 construct: range 89-760; same product number named for FP and SPR; also called Cyno TfR1; Acro Biosystems TFR-C524a
Briefly: SPR, TfR1 on chip.

T2 sequence (P02786 89-760 limits assumed): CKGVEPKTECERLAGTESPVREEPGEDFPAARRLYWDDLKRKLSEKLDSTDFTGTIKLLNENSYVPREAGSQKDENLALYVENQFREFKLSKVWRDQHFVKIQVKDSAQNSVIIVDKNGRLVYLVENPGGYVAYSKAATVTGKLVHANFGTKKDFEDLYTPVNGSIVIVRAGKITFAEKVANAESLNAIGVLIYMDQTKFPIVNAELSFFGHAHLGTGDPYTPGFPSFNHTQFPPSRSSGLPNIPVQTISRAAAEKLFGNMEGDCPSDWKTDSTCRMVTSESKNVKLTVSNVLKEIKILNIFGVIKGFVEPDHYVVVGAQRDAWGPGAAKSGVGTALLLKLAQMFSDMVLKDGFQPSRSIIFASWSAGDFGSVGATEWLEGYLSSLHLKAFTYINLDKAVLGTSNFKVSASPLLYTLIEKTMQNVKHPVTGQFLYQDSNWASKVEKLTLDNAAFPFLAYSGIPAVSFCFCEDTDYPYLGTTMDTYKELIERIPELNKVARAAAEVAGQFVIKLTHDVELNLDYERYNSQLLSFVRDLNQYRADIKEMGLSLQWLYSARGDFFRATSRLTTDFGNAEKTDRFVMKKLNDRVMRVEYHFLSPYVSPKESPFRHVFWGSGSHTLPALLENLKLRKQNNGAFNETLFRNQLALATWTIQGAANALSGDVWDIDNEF
T1 sequence (P02786 89-760 limits assumed): as above
T3 sequence (chain, as listed by the source): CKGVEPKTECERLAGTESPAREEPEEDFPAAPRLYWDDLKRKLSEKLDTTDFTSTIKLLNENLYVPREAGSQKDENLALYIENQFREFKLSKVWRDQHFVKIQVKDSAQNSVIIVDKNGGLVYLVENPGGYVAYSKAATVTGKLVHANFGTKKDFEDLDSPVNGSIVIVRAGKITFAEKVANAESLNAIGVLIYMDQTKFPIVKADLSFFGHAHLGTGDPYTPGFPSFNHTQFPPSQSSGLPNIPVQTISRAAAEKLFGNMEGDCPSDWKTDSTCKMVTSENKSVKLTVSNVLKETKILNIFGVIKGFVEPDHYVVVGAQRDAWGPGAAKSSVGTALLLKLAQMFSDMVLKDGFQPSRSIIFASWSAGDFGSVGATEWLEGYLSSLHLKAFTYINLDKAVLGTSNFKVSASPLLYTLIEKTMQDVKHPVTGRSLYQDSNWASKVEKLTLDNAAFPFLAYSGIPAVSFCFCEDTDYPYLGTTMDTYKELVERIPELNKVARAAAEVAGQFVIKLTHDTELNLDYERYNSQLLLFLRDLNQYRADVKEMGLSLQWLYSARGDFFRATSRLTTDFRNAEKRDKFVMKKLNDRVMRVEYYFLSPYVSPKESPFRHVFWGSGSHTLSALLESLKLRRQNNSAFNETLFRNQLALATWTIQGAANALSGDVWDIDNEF

In turn, ACYLPDWXCGDEYCA (not fully specified; 3 Cys on TATB; core as printed CYLPDW[tBuAla]CGDEYC) [BCY15648] gave a Ki in test [1] of 107 nM.
Regarding Ac-CSPDAHLGCISYC (linker 1-9-13 via TATB) [BCY15891], the inhibitory constant (Ki) came out at 94 nM in test [2] and 67 nM in test [1]. Besides, the Kd was found to be 46 nM in test [3] and 3990 nM in test [4].
For Ac-CAPDAHLGCISYC (linker 1-9-13 via TATB (inferred)) [BCY17986], the Kd in test [4] is 4660 nM.
Ac-CSADAHLGCISYC (linker 1-9-13 via TATB (inferred)) [BCY17987]: the Ki turned out to be 383 nM in test [2] and 42 nM in test [1]. Moreover, the dissociation constant (Kd) in test [3] came out at 50 nM; in test [4], 5140 nM.

B1: BCY20546 (peptide)
peptide: CPXDAYLGCXSYC
modifications: 3 Cys on TATA; N-terminal acetyl (Ac); core as printed CP[HyP]DAYLGC[tBuGly]SYC
notes: Same peptide as BCY17991 but cyclised on TATA
Consider B1, for which the Kd in test [3] was 1660 nM.
With Ac-CS[Hyp]DAHLGCISYC (linker 1-9-13 via TATB) [BCY17989], the affinity in test [1] corresponds to a Ki of 30 nM.
In the case of ACSPDAHLGCIS[4Pal]CA (linker 2-10-14 via TATB) [BCY16032], the Ki in test [2] and in test [1] was 654 nM throughout. The dissociation constant (Kd) in test [3] was 305 nM; in test [4], 30000 nM.
For the molecule ACSPDAHLGCISYCA (linker 2-10-14 via TATB) [BCY15468], affinity in test [2] was put at a Ki of 103 nM.
As to ACSPDAYLGC[tBuAla]SYCA (linker 2-10-14 via TATB) [BCY16558], the Ki in test [2] and in test [1] was 1620 nM each time. Moreover, the values for the Kd in test [3] and in test [4] were 20000 nM and 50000 nM, respectively.
Regarding ACP[Aib]DAYLGC[Tle]SYCA (linker 2-10-14 via TATB) [BCY16963], in test [4], the dissociation constant (Kd) came to 501 nM.
For the molecule ACP[Aib]DAHLGC[Tle]SYCA (linker 2-10-14 via TATB) [BCY16962], the Ki in test [2] and in test [1] was 36 nM in each case. Moreover, the dissociation constant Kd in test [3] worked out at 6.1 nM; in test [4] it was 599 nM.
On to ACS[Aib]DAHLGC[Tle]SYCA (linker 2-10-14 via TATB) [BCY16753], for which the Ki in test [2] and in test [1] was 48 nM throughout. Moreover, the equilibrium dissociation constant (Kd) in test [3] is 12 nM; in test [4] it was 1700 nM.

B2: BCY15935 (peptide)
peptide: CSPDAHLGCISYC
modifications: 3 Cys on a scaffold (TATA or TATB assumed by the filing for non-inhibitory peptides; not stated for this one)
On to B2, for which the Ki in test [2] and in test [1] was 300 nM in each case.
In the case of ACSPDAYLGC[Tle]SYCA (linker 2-10-14 via TATB) [BCY16966], the dissociation constant (Kd) in test [4] is 1900 nM.
With ACPPDAYLGC[Tle]SYCA (linker 2-10-14 via TATB) [BCY16964], the Kd in test [4] was 514 nM.
With ACSPDAHLGCIS[1Nal]CA (linker 2-10-14 via TATB) [BCY16029], the equilibrium dissociation constant (Kd) in test [4] was determined as 5480 nM.
NWNCSPDAHLGCISYC (3 Cys on TATB; N-terminal acetyl (Ac); [NMeTrp] in N-terminal extension) [BCY18036]: in test [1], the inhibition constant Ki is 90 nM. Further, the dissociation constant Kd in test [3] turned out to be 422 nM; in test [4] it was 7310 nM.
Consider ACPXDAHLGCISYCA (3 Cys on TATB; core as printed CP[Aib]DAHLGCISYC) [BCY16550], for which the inhibitory constant (Ki) in test [2] and in test [1] was 56 nM each time. For the same molecule, the results for the equilibrium dissociation constant (Kd) in test [3] and in test [4] were 18 nM and 682 nM, respectively.
Ac-CSPDAHLGCISYCE[dP]W (linker 1-9-13 via TATB (inferred)) [BCY18038]: the dissociation constant Kd in test [4] worked out at 1650 nM.
For NEVCSPDAHLGCISYCA (linker 4-12-16 via TATB (inferred)) [BCY17112], the Kd in test [4] is 2600 nM.
With NWNCSPDAHLGCISYCK (3 Cys on TATB; C-terminal [K(N3)] 6-azido lysine) [BCY17870], the inhibition constant (Ki) in test [2] was 9 nM.
NWNCSPDAHLGCISYCA (linker 4-12-16 via TATB) [BCY17109]: the Kd in test [4] was 281 nM and 535 nM.
In the case of ACSPDAHLGCXSYCA (3 Cys on TATB; core as printed CSPDAHLGC[B-Melle]SYC (beta-methyl isoleucine)) [BCY16040], the inhibition constant Ki in test [1] turned out to be 20000 nM.
Regarding HWMCSPDAHLGCISYCA (linker 4-12-16 via TATB) [BCY17110], the Ki in test [2] and in test [1] was 22 nM in each case. Also, the figures for the Kd in test [3] and in test [4] were 15 nM and 232 nM, respectively.
Consider Ac-NWNCSPDAHLGCISYC (linker 4-12-16 via TATB (inferred)) [BCY17992], for which the dissociation constant (Kd) in test [4] turned out to be 535 nM.
Turning to CPXDAYLGCXSYC (3 Cys on TATB; N-terminal acetyl (Ac); core as printed CP[HyP]DAYLGC[tBuGly]SYC) [BCY17991], the Ki turned out to be 3 nM in test [2] and 2 nM in test [1]. In addition, the Kd in test [3] came to 3.4 nM; in test [4] it was 35 nM.
As for ACSPDAHLGCISYCPIVH (linker 2-10-14 via TATB (inferred)) [BCY17120], the dissociation constant Kd in test [4] came to 1260 nM.
Regarding ACSPDAHLGCISYCPHP-NH2 (linker 2-10-14 via TATB (inferred)) [BCY17115], the Ki in test [2] and in test [1] was 30 nM throughout. Moreover, the figures for the Kd in test [3] and in test [4] were 60 nM and 1240 nM, respectively.
Turning to NWNCPXDAYLGCXSYC (3 Cys on TATB; core as printed CP[HyP]DAYLGC[tBuGly]SYC) [BCY18033], the inhibition constant (Ki) in test [2] turned out to be 6 nM; in test [1], 4 nM. In test [4], the equilibrium dissociation constant (Kd) was determined as 589 nM.

B3: BCY15889 (peptide)
peptide: Ac-CPPDAHLGCISWC-NH2
modifications: linker 1-9-13 via TATB
SMILES: CC[C@H](C)[C@@H]1NC(=O)[C@@H]2CSCC(=O)N3CN(CN(C3)C(=O)CSC[C@H](NC(C)=O)C(=O)N3CCC[C@H]3C(=O)N3CCC[C@H]3C(=O)N[C@@H](CC(=O)O)C(=O)N[C@@H](C)C(=O)N[C@@H](Cc3c[nH]cn3)C(=O)N[C@@H](CC(C)C)C(=O)NCC(=O)N2)C(=O)CSC[C@@H](C(N)=O)NC(=O)[C@H](Cc2c[nH]c3ccccc23)NC(=O)[C@H](CO)NC1=O
In test [1], B3 registered an inhibitory constant (Ki) of 40 nM.
In turn, Ac-CP[Hyp]DAYLGCISYC (linker 1-9-13 via TATB) [BCY17990] registered an inhibitory constant (Ki) in test [2] of 8 nM.
Molecule AzPro-CSPDAHLGCISYC (linker 1-9-13 via TATB (inferred)) [BCY17869] registered a Ki in test [2] of 30 nM.
Regarding NWNCPXDAYLGCXSYC (3 Cys on TATB; N-terminal acetyl (Ac); core as printed CP[HyP]DAYLGC[tBuGly]SYC) [BCY17993], the figures for the Ki in test [2] and in test [1] were 5 nM and 3 nM, respectively. Moreover, the Kd worked out at 9 nM in test [3] and 235 nM in test [4].
As for CPXDAYLGCXSYCEPW (3 Cys on TATB; N-terminal acetyl (Ac); core as printed CP[HyP]DAYLGC[tBuGly]SYC) [BCY17995], the values for the Ki in test [2] and in test [1] were 5 nM and 2 nM, respectively. In addition, the Kd in test [3] worked out at 3.4 nM.
The molecule NWNCSPDAHLGCISYCK (3 Cys on TATB; N-terminal acetyl (Ac); C-terminal [K(N3)] 6-azido lysine) [BCY17871] displayed a Ki in test [2] of 9 nM.
Regarding Ac-CSPDAHLGCISYCEPW-NH2 (linker 1-9-13 via TATB (inferred)) [BCY17994], the inhibition constant Ki in test [2] and in test [1] was 8 nM throughout. For the same molecule, the Kd in test [4] came to 688 nM.
With Ac-N[dW]NCSPDAHLGCISYC (linker 4-12-16 via TATB (inferred)) [BCY18035], the Kd in test [4] turned out to be 10300 nM.
Turning to Ac-N[1Nal]NCSPDAHLGCISYC (linker 4-12-16 via TATB) [BCY18034], in test [4], the dissociation constant (Kd) came out at 2080 nM.
Consider ACSPDAHLGCISYCEPW (linker 2-10-14 via TATB (inferred)) [BCY17114], for which the equilibrium dissociation constant (Kd) in test [4] is 845 nM.
In the case of ACSPDAHLGCIS[2Nal]CA (linker 2-10-14 via TATB) [BCY16031], the inhibition constant (Ki) in test [2] and in test [1] was 119 nM each time. Moreover, the Kd in test [3] amounted to 68 nM; in test [4], 6480 nM.

The record behind these values is patent publication US20250340595A1 (published 2025).
